Measured values taken from publication PMC10673995, “Discovery of a novel cardiac-specific myosin modulator using artificial intelligence-based virtual screening” (Nature Communications, 2023).

Target: Rabbit skeletal F-actin (rabbit), P68135

- F-actin concentration dependence of the steady-state ATPase activity of bovine β-cardiac myosin S1 (NADH-coupled assay), Kapp in the absence and in the presence of 100 μmol/L F10: 20 µmol/L
B1: bovine β-cardiac myosin S1, Q9BE39 1-1935; P85100 1-199 (domain or fragment)
heavy: MVDAEMAAFGEAAPYLRKSEKERLEAQTRPFDLKKDVFVPDDKEEFVKATILSREGGKVTAETEHGKTVTVKEDQVLQQNPPKFDKIEDMAMLTFLHEPAVLYNLKERYASWMIYTYSGLFCVTINPYKWLPVYNAEVVAAYRGKKRSEAPPHIFSISDNAYQYMLTDRENQSILITGESGAGKTVNTKRVIQYFAVIAAIGDRSKKEQATGKGTLEDQIIQANPALEAFGNAKTVRNDNSSRFGKFIRIHFGATGKLASADIETYLLEKSRVIFQLKAERDYHIFYQILSNKKPELLDMLLITNNPYDYAFISQGETTVASIDDAEELMATDNAFDVLGFTTEEKNSMYKLTGAIMHFGNMKFKLKQREEQAEPDGTEEADKSAYLMGLNSADLLKGLCHPRVKVGNEYVTKGQNVQQVVYAKGALAKAVYERMFNWMVTRINATLETKQPRQYFIGVLDIAGFEIFDFNSFEQLCINFTNEKLQQFFNHHMFVLEQEEYKKEGIEWEFIDFGMDLQACIDLIEKPMGIMSILEEECMFPKATDMTFKAKLFDNHLGKSSNFQKPRNIKGKPEAHFSLIHYAGTVDYNIIGWLQKNKDPLNETVVDLYKKSSLKMLSSLFANYAGFDTPIEKGKGKAKKGSSFQTVSALHRENLNKLMTNLRSTHPHFVRCIIPNETKSPGVIDNPLVMHQLRCNGVLEGIRICRKGFPNRILYGDFRQRYRILNPAAIPEGQFIDSRKGAEKLLGSLDIDHNQYKFGHTKVFFKAGLLGLLEEMRDERLSRIITRIQAQSRGVLSRMEFKKLLERRDSLLIIQWNIRAFMGVKNWPWMKLYFKIKPLLKSAETEKEIALMKEEFGRLKEALEKSEARRKELEEKMVSLLQEKNDLQLQVQAEQDNLADAEERCDQLIKNKIQLEAKVKEMTERLEDEEEMNAELTAKKRKLEDECSELKRDIDDLELTLAKVEKEKHATENKVKNLTEEMAGLDEIIAKLTKEKKALQEAHQQALDDLQAEEDKVNTLTKAKVKLEQHVDDLEGSLEQEKKVRMDLERAKRKLEGDLKLTQESIMDLENDKQQLDERLKKKDFELNALNARIEDEQALGSQLQKKLKELQARIEELEEELEAERTARAKVEKLRSDLSRELEEISERLEEAGGATSVQIEMNKKREAEFQKMRRDLEEATLQHEATAAALRKKHADSVAELSEQIDNLQRVKQKLEKEKSEFKLELDDVTSNMEQIIKAKANLEKMCRTLEDQMNEHRSKAEETQRSVNDLTSQRAKLQTENGELSRQLDEKEALISQLTRGKLTYTQQLEDLKRQLEEEVKAKNALAHALQSARHDCDLLREQYEEETEAKAELQRVLSKANSEVAQWRTKYETDAIQRTEELEEAKKKLAQRLQDAEEAVEAVNAKCSSLEKTKHRLQNEIEDLMVDVERSNAAAAALDKKQRNFDKILAEWKQKYEESQSELESSQKEARSLSTELFKLKNAYEESLEHLETFKRENKNLQEEISDLTEQLGSSGKTIHELEKVRKQLEAEKLELQSALEEAEASLEQEEGKILRAQLEFNQIKAEMERKLAEKDEEMEQAKRNHLRVVDSLQTSLDAETRSRNEALRVKKKMEGDLNEMEIQLSHANRLAAEAQKQVKSLQSLLKDTQIQLDDAVRANDDLKENIAIVERRNNLLQAELEELRAVVEQTERSRKLAEQELIETSERVQLLHSQNTSLINQKKKMEADLSQLQTEVEEAVQECRNAEEKAKKAITDAAMMAEELKKEQDTSAHLERMKKNMEQTIKDLQHRLDEAEQIALKGGKKQLQKLEARVRELENELEAEQKRNAESVKGMRKSERRIKELTYQTEEDRKNLLRLQDLVDKLQLKVKAYKRQAEEAEEQANTNLSKFRKVQHELDEAEERADIAESQVNKLRAKSRDIGTKGLNEE
light: not shown
